Assays:
[1] = system: PBMC from healthy HCMV seropositive donors; test: IFN-γ ELISPOT assay; format: cell-based, human; conditions: for ELISPOT Responses (SFC/10^6 PBMC): peptide 10 μg/ml
Procedure: ELISPOT assay was used to assess whether stimulation of PBMC from a large panel of seropositive donors with HCMV peptides could induce IFN-γ expression in T cells. Briefly, a 96-well nitrocellulose plate (Multiscreen, Millipore) was coated overnight at 4° C. with mouse monoclonal antibody anti-IFN-γ IgG1 (10 μg/ml; Mabtech Nacka, Sweden). The plate was then washed six times in Phosphate Buffered Saline (PBS) and blocked for 1 hour at 37° C. with PBS supplemented with 5% FCS. The blocking solution was removed and PBMC from healthy HCMV seropositive donors were added at a concentration of 2.5×10^5 cells per well in growth medium. These cells were incubated for 18 h at 37° C. in a 5% CO2 atmosphere in the presence of synthetic peptides from HCMV antigens (10 μg/ml). After incubation, the plate was washed three times with PBS supplemented with 0.05% Tween, followed by three washes with PBS alone. Biotinylated anti-IFN-γ (Mabtech, Nacka Sweden) detection antibody was added to each well at a final concentration of 1 μg/ml in PBS. The plates were incubated at room temperature in the dark for 4 h and then washed, as described above. Streptavidin-Alkaline phosphatase (Sigma) was added to each well at a final concentration of 1 μg/ml in PBS and incubated at room temperature in the dark for 2 h. After a final wash with PBS, the substrate, 5-bromo-4-chloro-3-indolyl phosphate and nitro blue tetrazolium, was added to each well and the plates incubated for 30 min at RT. Cells that produced IFN-γ in response to the presence of peptide were detected as purple spots on the nitrocellulose membrane of each well. The spots were counted automatically using a closed-circuit camera (CCD) and ImagePro image analysis software or automated ELISPOT reader (AID, Germany). The T cell precursor frequency for each peptide was based on the total number of PBMC in the well and the number of peptide-specific spots per well, over an average of 3 wells. The number of peptide-specific spots was also calculated by subtracting the negative control values, which consisted of PBMC without peptide (an average of 3 wells), from the test wells.
To determine whether memory CTL responses against the predictive HCMV potential epitopes could be detected in healthy seropositive virus carriers, we used the ELISPOT assay, which allows rapid identification of CTL epitopes without prolonged in vitro culture.
We tested epitopes that were restricted for HLA A1, A3, A24, A26, B7, B8, B27, B35 and B44 in ELISPOT assays, to determine whether memory T cell responses could be detected in healthy HLA-matched virus carriers. PBMC from a cohort of healthy virus carriers (Table 2) were stimulated with individual peptides and the cells that produced IFN-γ were detected. CTL epitopes that were restricted through either HLA A1, A3, A24, A26, B7, B8 or B27, were identified.
Thus, a total of 450 peptides were produced. ELISPOT assays were used to determine whether ex vivo memory T cell responses could be detected in a cohort of 14 healthy virus carriers (Table 2). PBMC were stimulated with individual peptides and the cells that produced IFN-γ were detected.

HLA A2 = biological target: T1, HLA A2 (Homo sapiens, UniProt P04439, D140Y/D185E/D98H/E176V/E277Q/G131W/G231S/I119V/I121R/I166T/I218V/L300P/L318F/N151K/N90K/P208A/P217A/Q86G/Q94H/R138H/R169H/T345S); format: cell-based; conditions: HLA A2 on T2 cells; relative increase in HLA expression vs no peptide at 26° C.
T1 construct: endogenous in cells; host or cells: T2 cells

Row | Sequence | MSE (MHC stabilization efficiency) (HLA A2) | further results
1 | YLFSLVVLV (human cytomegalovirus US3 CTL epitope peptide) | + (+ = 51-99%) | ELISPOT Responses (SFC/10^6 PBMC) ([1]; donor ten): WS(73) SFC/10^6 PBMC
2 | LLVLFIVYV (human cytomegalovirus US2 CTL epitope peptide) | − (− = 0-50%) | ELISPOT Responses (SFC/10^6 PBMC) ([1]; donor ten): WS(92) SFC/10^6 PBMC
3 | ALVNAVNKL (human cytomegalovirus pp150 CTL epitope peptide) | ++ (++ = 100-199%) | ELISPOT Responses (SFC/10^6 PBMC) ([1]; donor ten): WS(60) SFC/10^6 PBMC
4 | LLFRTLLVYL (human cytomegalovirus US3 CTL epitope peptide) | +++ (+++ = 200-300%) | ELISPOT Responses (SFC/10^6 PBMC) ([1]; donor seven): 76 SFC/10^6 PBMC; ELISPOT Responses (SFC/10^6 PBMC) ([1]; donor ten): 77 SFC/10^6 PBMC
5 | LMLLKNGTV (human cytomegalovirus gH CTL epitope peptide) | − (− = 0-50%) | ELISPOT Responses (SFC/10^6 PBMC) ([1]; donor seventeen): CJ(80) SFC/10^6 PBMC
6 | FLMEHTMPV (human cytomegalovirus IE2 CTL epitope peptide) | ++ (++ = 100-199%) | ELISPOT Responses (SFC/10^6 PBMC) ([1]; donor ten): WS(137) SFC/10^6 PBMC
7 | LIEDFDIYV (human cytomegalovirus pp150 CTL epitope peptide) | ++ (++ = 100-199%) | ELISPOT Responses (SFC/10^6 PBMC) ([1]; donor ten): WS(88) SFC/10^6 PBMC
8 | YILEETSVM (human cytomegalovirus IE1 CTL epitope peptide) [reference compound] | ++ (++ = 100-199%) | ELISPOT Responses (SFC/10^6 PBMC) ([1]; donor seven): SB(764) SFC/10^6 PBMC
9 | LMNGQQIFL | ++ (++ = 100-199%) | ELISPOT Responses (SFC/10^6 PBMC) ([1]; donor fifteen): 217 SFC/10^6 PBMC; ELISPOT Responses (SFC/10^6 PBMC) ([1]; donor ten): 751 SFC/10^6 PBMC
10 | LLGALNLCL (human cytomegalovirus IE2 CTL epitope peptide) | ++ (++ = 100-199%) | 
11 | ALDPYNEVV (human cytomegalovirus gH CTL epitope peptide) | +++ (+++ = 200-300%) | 
12 | LIFGHLPRV (human cytomegalovirus gH CTL epitope peptide) | ++ (++ = 100-199%) | ELISPOT Responses (SFC/10^6 PBMC) ([1]; donor delta): SE(84) SFC/10^6 PBMC
13 | LLMMSVYAL (human cytomegalovirus gH CTL epitope peptide) | ++ (++ = 100-199%) | 
14 | RIWCLVVCV (human cytomegalovirus gB CTL epitope peptide) | − (− = 0-50%) | ELISPOT Responses (SFC/10^6 PBMC) ([1]; donor fifteen): 105 SFC/10^6 PBMC; ELISPOT Responses (SFC/10^6 PBMC) ([1]; donor one): 108 SFC/10^6 PBMC
15 | YLLYRMLKT (human cytomegalovirus gH CTL epitope peptide) | − (− = 0-50%) | 
16 | RIEENLEGV (human cytomegalovirus pp150 CTL epitope peptide) | + (+ = 51-99%) | 
17 | LLSEFCRVL (human cytomegalovirus IE1 CTL epitope peptide) | ++ (++ = 100-199%) | 
18 | KMSVRETLV (human cytomegalovirus pp150 CTL epitope peptide) | ++ (++ = 100-199%) | ELISPOT Responses (SFC/10^6 PBMC) ([1]; donor delta): SE(69) SFC/10^6 PBMC
19 | DLVPLTVSV (human cytomegalovirus pp71 CTL epitope peptide) | + (+ = 51-99%) | 
20 | DLDEGIMVV (human cytomegalovirus gB CTL epitope peptide) | − (− = 0-50%) | 
21 | TLLVLFIVYV (human cytomegalovirus US2 CTL epitope peptide) | − (− = 0-50%) | ELISPOT Responses (SFC/10^6 PBMC) ([1]; donor delta): SE(46) SFC/10^6 PBMC
22 | LLNCAVTKL (human cytomegalovirus pp50 CTL epitope peptide) | ++ (++ = 100-199%) | ELISPOT Responses (SFC/10^6 PBMC) ([1]; donor delta): SE(59) SFC/10^6 PBMC

Row | Sequence | MSE (MHC stabilization efficiency) (HLA A2) | further results
23 | SLVRLVYIL (human cytomegalovirus gH CTL epitope peptide) | + (+ = 51-99%) | 
24 | ALFFFDIDL [reference compound] | ++ (++ = 100-199%) | 
25 | NLFPYLVSA (human cytomegalovirus gB CTL epitope peptide) | ++ (++ = 100-199%) | 
26 | SLLSEFCRV (human cytomegalovirus IE1 CTL epitope peptide) | +++ (+++ = 200-300%) | ELISPOT Responses (SFC/10^6 PBMC) ([1]; donor ten): WS(471) SFC/10^6 PBMC
27 | LLVEPCARV (human cytomegalovirus pp28 CTL epitope peptide) | ++ (++ = 100-199%) | 
28 | FLGARSPSL (human cytomegalovirus pp150 CTL epitope peptide) | ++ (++ = 100-199%) | 
29 | RLLQTGIHV [reference compound] | ++ (++ = 100-199%) | ELISPOT Responses (SFC/10^6 PBMC) ([1]; donor thirteen): BS(57) SFC/10^6 PBMC
30 | TLLVYLFSL (human cytomegalovirus US3 CTL epitope peptide) | ++ (++ = 100-199%) | 
31 | LLIPKSFTL (human cytomegalovirus pp71 CTL epitope peptide) | − (− = 0-50%) | 
32 | ALVNFLRHL (human cytomegalovirus pp150 CTL epitope peptide) | ++ (++ = 100-199%) | ELISPOT Responses (SFC/10^6 PBMC) ([1]; donor ten): WS(57) SFC/10^6 PBMC
33 | ILFDGHDLL (human cytomegalovirus gH CTL epitope peptide) | +++ (+++ = 200-300%) | 
34 | IILVAIAVV (human cytomegalovirus gB CTL epitope peptide) | + (+ = 51-99%) | 
35 | CLQNALDIL (human cytomegalovirus IE1 CTL epitope peptide) | ++ (++ = 100-199%) | ELISPOT Responses (SFC/10^6 PBMC) ([1]; donor delta): SE(490) SFC/10^6 PBMC
36 | GLDDLMSGL (human cytomegalovirus gB CTL epitope peptide) | ++ (++ = 100-199%) | 
37 | TMWCLTLFV (human cytomegalovirus UL18 CTL epitope peptide) | ++ (++ = 100-199%) | 
38 | ILARNLVPM | ++ (++ = 100-199%) | ELISPOT Responses (SFC/10^6 PBMC) ([1]; donor delta): SE(170) SFC/10^6 PBMC
39 | MLNIPSINV [reference compound] | ++ (++ = 100-199%) | ELISPOT Responses (SFC/10^6 PBMC) ([1]; donor one): 178 SFC/10^6 PBMC; ELISPOT Responses (SFC/10^6 PBMC) ([1]; donor seven): 65 SFC/10^6 PBMC
40 | NILQKIEKI (human cytomegalovirus pp150 CTL epitope peptide) | + (+ = 51-99%) | 
41 | LLIDPTSGL (human cytomegalovirus pp28 CTL epitope peptide) | + (+ = 51-99%) | ELISPOT Responses (SFC/10^6 PBMC) ([1]; donor beta): 77 SFC/10^6 PBMC; ELISPOT Responses (SFC/10^6 PBMC) ([1]; donor seven): 270 SFC/10^6 PBMC
42 | ILGADPLRV (human cytomegalovirus IE1 CTL epitope peptide) | ++ (++ = 100-199%) | 
43 | RIFAELEGV [reference compound] | ++ (++ = 100-199%) | donors recognizing the epitope in ELISPOT ([1]; cohort of eight HLA A2-positive healthy seropositive donors): 5 of the 8; ELISPOT Responses (SFC/10^6 PBMC) ([1]; donor fifteen): CP(275) SFC/10^6 PBMC; ELISPOT Responses (SFC/10^6 PBMC) ([1]; donor six): 170 SFC/10^6 PBMC; ELISPOT Responses (SFC/10^6 PBMC) ([1]; donor ten): 236 SFC/10^6 PBMC

Reference: patent US7524503B2, “Human cytomegalovirus (HCMV) cytotoxic T cell epitopes, polyepitopes compositions comprising same and diagnostic and prophylactic and therapeutic uses therefor” (priority 2001, dated 2009)
